Results taken from patent US7993648.

Biological target: CD70 (UniProt O55237)
Test: cell-based or functional assay

UniProt O55237, sequence (O55237 whole entry): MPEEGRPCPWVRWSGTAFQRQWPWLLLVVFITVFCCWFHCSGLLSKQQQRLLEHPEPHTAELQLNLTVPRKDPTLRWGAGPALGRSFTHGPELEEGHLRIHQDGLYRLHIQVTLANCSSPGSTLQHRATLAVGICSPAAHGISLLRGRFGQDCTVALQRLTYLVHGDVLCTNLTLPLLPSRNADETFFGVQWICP

- CD8+ T cell response (tetramer staining of day 7 PBLs) in CD4-depleted IFNαβR KO mice: 10 fold
Substance: anti-CD70 blocking antibody FR70
